Measurements taken from patent publication US20180072783A1 (published 2018).

T1: Ang2 (UniProt O15123 19-496)
T1 chain: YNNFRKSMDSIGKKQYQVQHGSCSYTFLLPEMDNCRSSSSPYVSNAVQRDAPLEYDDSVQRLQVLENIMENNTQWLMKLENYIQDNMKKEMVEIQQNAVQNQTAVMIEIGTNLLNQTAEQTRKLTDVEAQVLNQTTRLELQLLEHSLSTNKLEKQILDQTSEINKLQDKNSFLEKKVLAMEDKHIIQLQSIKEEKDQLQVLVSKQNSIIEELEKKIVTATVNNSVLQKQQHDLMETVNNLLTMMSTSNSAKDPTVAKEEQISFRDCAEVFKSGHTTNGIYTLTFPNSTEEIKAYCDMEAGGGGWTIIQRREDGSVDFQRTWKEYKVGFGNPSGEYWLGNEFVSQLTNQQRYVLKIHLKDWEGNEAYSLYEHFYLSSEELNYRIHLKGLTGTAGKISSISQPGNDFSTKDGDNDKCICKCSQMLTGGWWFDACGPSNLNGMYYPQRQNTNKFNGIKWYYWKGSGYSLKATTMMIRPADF


Molecular target: T1, Ang2
Test: direct binding ELISA; MBP fusion

EC50 | Binder
> 100 nM | AQTNFMPMDDDELLLYEQFIL [L1-7D MKD (5A8)]
0.411 nM | AQTNFMPMDQDELLLYEQFI [L1-7D MND (4H4)]
17 nM | AQTNFMPMDNDEALLYEEFI [L1-7D MHD (3C3)]
> 100 nM | AQTNFMPMDQDEALLYEEFIC [L1-7D MAD (6A3)]
> 100 nM | AQTNFMPMDNDEGLLYEEFI [L1-7D MVD (2A1)]
> 100 nM | AQTNFMPMDNDEALLYEQFI [L1-7D MQD (1A12)]
0.153 nM | AQTNFMPMDNDEGLLYEQFI [L1-7D MDD (ZC12)]
1.38 nM | KSLSLSPGGNGTTNFMPMDQDEALLYEEFI [L1-7D MSD (7B2)]
